Reference: paper PMC12070071, “The Drosophila pseudokinase Tribbles translocates to the fat body membrane in response to fasting to modulate insulin sensitivity” (Development (Cambridge, England), 2025)

B1: Drosophila Tribbles (Trbl), wild type, yeast two-hybrid fusion (natural protein, UniProt Q9V3Z1 1-484, looked up)
chain: MDNSSGQNSRTASSASTSKIVNYSSPVSPGVAAATSSSSSSSSSGMSSSQEDTVLGLFTPKKEFPNAKMLQTIREKLMTPGGACDLLALGIAAEPTDQQPVKLIQQRYLISAQPSHISAAVAAKTPASYRHLVDLTASNLRCVDIFTGEQFLCRIVNEPLHKVQRAYFQLQQHDEELRRSTIYGHPLIRPVHDIIPLTKDRTYILIAPVPQERDSTGGVTGVYENLHTYIRHAKRLCETEARAIFHQICQTVQVCHRNGIILRDLKLKRFYFIDEARTKLQYESLEGSMILDGEDDTLSDKIGCPLYTAPELLCPQQTYKGKPADMWSLGVILYTMLVGQYPFYEKANCNLITVIRHGNVQIPLTLSKSVRWLLLSLLRKDYTERMTASHIFLTPWLREQRPFHMYLPVDVEVAEDWSDAEEDEGTAADAMDDDEEGLCPLGDKHEYEDIGVEPLDYTRSTLQMAQNANGLSTEPEPDTDVDMG
notes: Tribbles (Trbl), Drosophila pseudokinase; WT Trbl ORF; One molecule for both two-hybrid copies: each copy carries only one of the two tags; also called WT Trbl; pDEST32-Trbl; source: yeast two-hybrid fusion (MaV203 yeast)
B2: Drosophila Akt, yeast two-hybrid prey (pDEST22-dAkt) (natural protein, UniProt Q8INB9 1-611, looked up)
chain: MNYLPFVLQRRSTVVASAPAPGSASRIPESPTTTGSNIINIIYSQSTHPNSSPTSGSAEKFSWQQSWPSRTSAAPTHDSGTMSINTTFDLSSPSVTSGHALTEQTQVVKEGWLMKRGEHIKNWRQRYFVLHSDGRLMGYRSKPADSASTPSDFLLNNFTVRGCQIMTVDRPKPFTFIIRGLQWTTVIERTFAVESELERQQWTEAIRNVSSRLIDVGEVAMTPSEQTDMTDVDMATIAEDELSEQFSVQGTTCNSSGVKKVTLENFEFLKVLGKGTFGKVILCREKATAKLYAIKILKKEVIIQKDEVAHTLTESRVLKSTNHPFLISLKYSFQTNDRLCFVMQYVNGGELFWHLSHERIFTEDRTRFYGAEIISALGYLHSQGIIYRDLKLENLLLDKDGHIKVADFGLCKEDITYGRTTKTFCGTPEYLAPEVLDDNDYGQAVDWWGTGVVMYEMICGRLPFYNRDHDVLFTLILVEEVKFPRNITDEAKNLLAGLLAKDPKKRLGGGKDDVKEIQAHPFFASINWTDLVLKKIPPPFKPQVTSDTDTRYFDKEFTGESVELTPPDPTGPLGSIAEEPLFPQFSYQGDMASTLGTSSHISTSTSLASMQ
notes: Akt kinase, Drosophila (dAkt); Akt open reading frame amplified from an Akt cDNA (Origene); source: yeast two-hybrid fusion (MaV203 yeast)

Tests used:
[1] = biological target: T1, Drosophila Tribbles activation loop mutant Trbl^SLE/G, yeast two-hybrid bait (Drosophila, UniProt Q9V3Z1 1-484, SLE/G (replacement of E286 with glycine)); test: two-hybrid; MaV203 yeast; bait in pDEST32, prey in pDEST22; colony growth of co-transformants on media with increasing concentrations of 3-AT (His3 reporter); settings: partners not purified
T1 construct: also called pDEST32-Trbl^SLE/G; source: yeast two-hybrid fusion (MaV203 yeast)
T1 sequence (looked up): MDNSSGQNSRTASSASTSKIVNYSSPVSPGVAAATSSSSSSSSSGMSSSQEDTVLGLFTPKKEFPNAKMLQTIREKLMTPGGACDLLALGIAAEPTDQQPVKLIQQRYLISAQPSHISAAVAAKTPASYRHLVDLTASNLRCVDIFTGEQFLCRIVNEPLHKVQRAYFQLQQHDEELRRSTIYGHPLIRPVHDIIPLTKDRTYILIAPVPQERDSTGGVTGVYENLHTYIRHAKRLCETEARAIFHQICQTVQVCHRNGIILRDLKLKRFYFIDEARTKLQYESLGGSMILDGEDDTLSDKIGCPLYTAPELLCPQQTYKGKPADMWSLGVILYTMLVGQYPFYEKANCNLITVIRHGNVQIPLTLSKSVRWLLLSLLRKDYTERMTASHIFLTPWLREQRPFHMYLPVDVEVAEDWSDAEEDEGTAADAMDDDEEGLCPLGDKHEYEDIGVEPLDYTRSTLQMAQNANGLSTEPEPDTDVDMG

[2] = biological target: B1; test: as above; settings: partners not purified

Row | Binder | highest 3AT concentration with growth [1] | highest 3AT concentration with growth [2]
1 | B1 | 100 mM 3AT | –
2 | B2 | 100 mM 3AT | 50 mM 3AT
